Test results from US20240343803A1 (SHANDONG SIMCERE BIOPHARMACEUTICAL, published 2024).
Changes are numbered by the printed parent chain. Each block holds one binder with its values, some of them ahead of it.

What was measured:
[1] = biological target: T1, Fusion protein of extracellular domain of cynomolgus monkey TIGIT and mouse IgG2a Fc fragment (cynomolgus … (cynomolgus monkey)); assay: ELISA, cynomolgus monkey TIGIT ECD-mFc
T1 construct: The entry includes the signal peptide (limits not recoverable) and the mouse IgG2a Fc
Experimental: (§1) After discarding the coating solution, the plate was added with 5% skim milk powder (Sangon Biotech, CAT #A600669-0250)-PBS, 250 μL/well, and incubated at 37° C. for 2-4 hours. […] The enzyme-labeled plate was then washed with 0.05% Tween 20-PBS for 3 times on the Microplate Washer, added with tested antibodies diluted to 13 nM with 1% BSA (diluted by 3-fold serial dilution for 12 concentration points), 50 μL/well, and incubated at 37° C. for 1.5-2 hours. The plate was washed with 0.05% Tween 20-PBS for 3 times on the Microplate Washer, then added with HRP enzyme-labeled antibodies (Merck, CAT #AP113P) diluted with 1% BSA (Sangon Biotech, CAT #A500023-0100)-PBS at a dilution ratio of 1:5000, 50 μL/well, and incubated at 37° C. for 1 hour. After washing 3 times with 0.05% Tween 20-PBS on the Microplate Washer, the plate was added with TMB chromogenic solution (KPL, CAT #52-00-03), 50 μL/well, and incubated at room temperature for 7-10 minutes. 1M HCL, 50 μL/well, was then added into the plate to terminate the reaction, and the OD450 nm was read by a microplate reader (Biotek, Powerwave HT). […] (b) The binding activity of anti-TIGIT chimeric antibodies to CHO-K1 human TIGIT (cells with high, medium and low expression levels) and CHO-KI cynomolgus monkey TIGIT detected by FACS.
(§2) The affinity of the above humanized antibodies with human TIGIT ECD-His is detected by BIAcore, and with reference to the methods of Example 4 (a), (b), and (d), the binding activity of the above humanized antibodies to human TIGIT ECD-mFc, CHO-K1 human TIGIT, CHO-K1 cynomolgus monkey TIGIT and cynomolgus monkey TIGIT ECD-mFc, and the effect of the humanized antibodies blocking the binding between human TIGIT ECD-mFc and CHO-K1 CD155 are detected, the results are shown in Table 18.

[2] = biological target: T2, Fusion protein of extracellular domain of human TIGIT and His-tag (human TIGIT ECD-his) (human); assay: BIAcore; KD ratio to TIGIT-CHI-006
T2 chain: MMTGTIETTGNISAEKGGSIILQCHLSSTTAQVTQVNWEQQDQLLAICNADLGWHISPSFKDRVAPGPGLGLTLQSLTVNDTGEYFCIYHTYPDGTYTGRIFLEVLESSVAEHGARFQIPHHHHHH

[3] = biological target: T3, Full-length human TIGIT on CHO-K1 cells (CHO-K1 human TIGIT) (human, UniProt Q495A1 22-244); assay: cell binding, CHO-K1 human TIGIT high expression strain
T3 construct: NCBI XP_024309156.1; the entry includes the signal peptide (limits not recoverable); The strain (high, medium, low) is named under assay; also called high expression strain 1D2; medium expression strain 2D10
T3 sequence: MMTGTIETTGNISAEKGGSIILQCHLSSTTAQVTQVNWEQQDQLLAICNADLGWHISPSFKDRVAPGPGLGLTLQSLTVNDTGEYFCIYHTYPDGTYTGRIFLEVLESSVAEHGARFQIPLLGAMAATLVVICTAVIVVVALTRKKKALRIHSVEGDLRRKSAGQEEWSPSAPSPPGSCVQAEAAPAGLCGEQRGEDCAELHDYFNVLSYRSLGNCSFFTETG
Experimental: (§3) The collected cells were washed once with PBS (Hyclone, CAT #SH30256), resuspended to 2×10⁵/50 μL with 1% BSA-PBS. The antibodies were diluted to 80 nM with 1% BSA-PBS (diluted by 3-fold serial dilution for 12 concentration points). The 50 μL cells were then mixed with 50 μL diluted antibodies, and then incubated at 4° C. for 60 minutes. […] After washing twice with PBS, the cell samples were resuspended with 1% BSA-PBS, 100 μL/well and then analyzed by flow cytometry (BD, Canto II). […] [0298] (c) The effect of anti-TIGIT chimeric antibodies blocking the interaction between Bio-CD155-His and CHO-K1 human TIGIT high expression cell strains detected by FACS
as §2

[4] = biological target: T4, Fusion protein of extracellular domain of human TIGIT and human IgG1 Fc fragment (human TIGIT ECD-hFc) (human); assay: blocking of TIGIT ECD-hFc binding to CHO-K1 CD155 cells
T4 construct: The entry includes the signal peptide (limits not recoverable) and the human IgG1 Fc
Outline: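 Inhibition was expressed as IC50 values derived from the inhibition curves of a cell-based ELISA. CHO-K1 CD155 cells were cultured overnight, fixed, and blocked with 5% skim milk-PBS. Antibodies were first premixed for 0.5 h with human TIGIT ECD-hFc at a working concentration of 30 ng/mL, and the mixture was then added to the cells for 1.5-2 h at 37° C. Bound TIGIT was detected with HRP secondary antibody (1:5000, 37° C, 1 h) and TMB, and read as OD450 nm.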

[5] = biological target: T5, Fusion protein of extracellular domain of human TIGIT and mouse IgG2a Fc fragment (human TIGIT ECD-mFc) (human); assay: ELISA, human TIGIT ECD-mFc
T5 construct: The entry includes the signal peptide (limits not recoverable) and the mouse IgG2a Fc
T5 chain: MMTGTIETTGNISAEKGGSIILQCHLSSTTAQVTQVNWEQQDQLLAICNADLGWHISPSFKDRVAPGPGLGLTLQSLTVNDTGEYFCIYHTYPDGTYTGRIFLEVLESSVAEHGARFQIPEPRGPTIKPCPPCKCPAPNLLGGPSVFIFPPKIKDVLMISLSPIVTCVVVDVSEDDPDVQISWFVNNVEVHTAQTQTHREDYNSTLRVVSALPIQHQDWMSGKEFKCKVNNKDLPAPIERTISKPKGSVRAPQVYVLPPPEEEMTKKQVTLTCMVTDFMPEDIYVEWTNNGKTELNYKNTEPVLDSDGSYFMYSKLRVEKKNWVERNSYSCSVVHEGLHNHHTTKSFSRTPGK
Experimental: as §1, §2

[6] = biological target: T2, Fusion protein of extracellular domain …; assay: BIAcore
[7] = biological target: T6, Full-length cynomolgus monkey TIGIT on CHO-K1 cells (CHO-K1 cynomolgus monkey TIGIT) (cynomolgus monkey); assay: cell binding, CHO-K1 cynomolgus monkey TIGIT
T6 construct: NCBI XP_015300911.1
Experimental: as §3, §2

[8] = biological target: T7, human PVRIG-his (AcroBiosystems, Cat NO. PVG-H52H4) (human, UniProt Q6DKI7 41-171, limits assumed); assay: competition ELISA on coated human PVRIG-his; blocked ligand human PVRL2-mFc
T7 construct: treated as the same protein; also called human PVRIG-His protein; Human PVRIG-His, Acro C227P1-9ARF1-T4
T7 sequence (looked up): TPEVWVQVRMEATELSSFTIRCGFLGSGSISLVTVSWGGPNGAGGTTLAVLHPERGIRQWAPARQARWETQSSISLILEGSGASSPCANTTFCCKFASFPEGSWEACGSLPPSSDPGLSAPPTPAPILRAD
Experimental: The ELISA plate was pre-coated with 100 μL/well of 0.5 μg/mL human PVRIG-his protein (AcroBiosystems, Cat NO. PVG-H52H4). The tested anti-PVRIG antibodies were diluted from the highest concentration of 16 nM (two-fold concentration). The diluted antibodies were mixed with 18 ng/ml human PVRL2-mFc (AcroBiosystems, Cat NO. CD2-H5257) in equal volume, added into the plate (100 μL/well), and incubated with shaking at room temperature for 2.0 hours. […] A HRP substrate, TMB (Thermo, Cat NO. 34029) was added into wells after washing the plate again for color development. After adding a termination solution to terminate the reaction, the absorbance value was read by a microplate reader (MD i3×). An inhibiting curve was drawn with concentration of antibodies as the abscissa and the corresponding OD value as the ordinate. The IC50 value was calculated by using a Four Parameter Logistic Fit (GraphPadPrism9). The smaller the IC50 value, the stronger the ability of the antibodies inhibits the binding between PVRIG and PVRL2. The positive and negative controls are the same as in Example 8.

[9] = biological target: T8, human PVRIG-mFc protein (Acro, PVG-H5253) (human, UniProt Q6DKI7 41-171, limits assumed); assay: competition FACS; blocked: human PVRIG-mFc binding to CHO-K1-CD112 cells
T8 construct: bought reagent; also called PVRIG-ECD-mFc
T8 sequence (looked up): T7 sequence (looked up)
Experimental: After incubation, the cells were added with staining buffer (2% FBS+PBS) to stop staining, centrifuged at 350×g to remove the supernatant, washed twice and resuspended with staining buffer to a density of 1×10⁶ cells/mL. The cells were plated into a 96-well plate (50 μL of cell suspension per well) for further use. A working solution of human PVRIG-mFc protein (Acro, PVG-H5253) prepared with staining buffer, 1 μg/mL (four-fold concentration), was added into a 96-well plate (50 μL PVRIG-mFc working solution per well). […] The diluted antibodies were added to the well containing 50 μL of PVRIG-mFc. The plate was placed on a microplate shaker at 400 rpm for 1 minute to fully mix the antibodies and PVRIG-mFc proteins, and then incubated at 4° C. for 30 minutes. After the incubation, the cell suspension prepared above (100 μL) was added into the wells, gently mixed with the pipette tip and incubated at 4° C. for 30 minutes. After the incubation, the cells were washed twice with staining buffer (200 μL per well) and centrifuged at 350×g for 5 minutes to discard the supernatant. The PE goat anti-mouse IgG Fc antibody (Biolegend, 405337) was diluted 250 times with staining buffer, added into the washed wells (100 μL per well), mixed well, and stained at 4° C. for 30 minutes. After staining, the cells were washed twice with staining buffer, finally resuspended with 200 μL staining buffer and analyzed by flow cytometry (BD, Canto II). The weaker the fluorescence signal, the stronger the ability of the antibodies blocks the binding of CHO-K1 human CD112 cells to the PVRIG-mFc protein. An antibody binding curve was drawn with concentration of antibodies as the abscissa and the corresponding Mean Fluorescence Intensity (MFI) as the ordinate. The IC50 value of the antibodies and the AUC value of the binding curve were calculated by using a Four Parameter Logistic Fit (GraphPadPrism9). The smaller the IC50 value and AUC value, the stronger the ability of the antibodies competes with CHO-K1-CD112 cells to bind to human PVRIG-mFc protein.

T4 sequence (chain, as listed by the source limits assumed): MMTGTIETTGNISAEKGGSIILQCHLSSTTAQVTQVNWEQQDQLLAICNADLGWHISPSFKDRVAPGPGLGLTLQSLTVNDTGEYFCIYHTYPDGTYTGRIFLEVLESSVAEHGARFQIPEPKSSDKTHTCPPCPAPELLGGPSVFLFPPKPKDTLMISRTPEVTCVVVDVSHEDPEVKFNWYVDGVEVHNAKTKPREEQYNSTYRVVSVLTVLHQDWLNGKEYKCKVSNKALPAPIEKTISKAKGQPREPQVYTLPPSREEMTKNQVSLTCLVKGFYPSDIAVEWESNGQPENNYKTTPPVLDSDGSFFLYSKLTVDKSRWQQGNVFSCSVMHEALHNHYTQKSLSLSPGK
T6 sequence (chain, as listed by the source limits assumed): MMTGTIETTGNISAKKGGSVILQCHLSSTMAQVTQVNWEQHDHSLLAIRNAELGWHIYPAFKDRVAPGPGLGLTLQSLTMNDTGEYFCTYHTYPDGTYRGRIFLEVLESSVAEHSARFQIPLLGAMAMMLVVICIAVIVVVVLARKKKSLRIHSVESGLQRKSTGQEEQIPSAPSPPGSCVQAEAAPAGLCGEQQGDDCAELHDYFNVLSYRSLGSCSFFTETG

B1: TIGIT-006-H3L1 (antibody, V domains shown)
VH: EVQLQESGPGLVKPSETLSLTCAVSGYSMTSDYWNWIRQPPGKKLEWIGYISYSGRTYYNPSLKSRVTISRDTSKNQFSLKLSSVTAADTAVYYCARGDYSNYGGAMYDWGQGTTVTVSS
VL: DIVMTQTPLSLSVTPGQPASISCRASQGVSTTIAWYLQKPGQSPQLLIYSASYRYTGVPDRFSGSGSGTDFTLKISRVEAEDVGVYYCQQYYSSPFTFGGGTKVEIK
notes: Humanized anti-TIGIT antibody
EC50 [1]: 2.81 nM
Fold change vs chimeric antibodies (KD) [2]: 9.11 fold
EC50 [3]: 0.0468 nM
IC50 [4]: 0.637 nM
EC50 [5]: 0.0096 nM
Kd [6]: 0.705 nM
koff [6]: 0.000241 s⁻¹
kon [6]: 342000 M⁻¹ s⁻¹

B6: PVRIG-A43 (VHH)
VHH: QVQLVESGGGLVQSGGSLRLSCAASGRTRSMYVMGWFRQAPGKEREFVGRIKWSGDTTYTSYADFVKGRFTLYGNQARNTVYLQMNSLKVEDTAVYYCAGRVVPLPSRQRDRYDYWGQGTQVTVSS
notes: tested as VHH-hinge-CH2-CH3 (human IgG1-Fc); not shown: human IgG1 hinge-CH2-CH3
IC50 (read off the curve) [8]: ~1 nM
IC50 (read off the curve) [9]: ~1 nM

B7: PVRIG-A104 (VHH)
VHH: EVQVVESGGGLVQAGGSLRLSCAASGRTRSMYVMGWFRQAPGKEREFVGRIKWSGDTTYTSYADFVKGRFTLYGNQARNTVYLQMNSLKPEDTAVYYCYRRSWTNTKLYWGKGIQVTVSS
notes: as for B6
IC50 (read off the curve) [8]: ~1 nM
IC50 (read off the curve) [9]: ~1 nM

Other lines, results leading:

EC50 [1]: 0.997 nM
Fold change vs chimeric antibodies (KD) [2]: 8.5 fold
EC50 [3]: 0.0251 nM
IC50 [4]: 0.671 nM
EC50 [5]: 0.0113 nM
Kd [6]: 0.658 nM
koff [6]: 0.000221 s⁻¹
kon [6]: 337000 M⁻¹ s⁻¹
B2: TIGIT-006-H4L2 (antibody, V domains shown)
VH: B1 VH with I48M, V67I
VL: B1 VL with L37Q, Q45K
notes: Humanized anti-TIGIT antibody

binding result [1]: no binding
Fold change vs chimeric antibodies (KD) [2]: 80.3 fold
EC50 [3]: 0.0702 nM
IC50 [4]: 1.53 nM
binding result [7]: no binding
EC50 [5]: 0.0186 nM
Kd [6]: 6.21 nM
koff [6]: 0.000757 s⁻¹
kon [6]: 122000 M⁻¹ s⁻¹
B3: TIGIT-006-H1L1 (antibody, V domains shown)
VH: B1 VH with M29I, K44G
VL: B1 VL
notes: Humanized anti-TIGIT antibody

EC50 [1]: 1.53 nM
Fold change vs chimeric antibodies (KD) [2]: 8.49 fold
EC50 [3]: 0.0349 nM
IC50 [4]: 0.704 nM
EC50 [5]: 0.0086 nM
Kd [6]: 0.657 nM
koff [6]: 0.000258 s⁻¹
kon [6]: 393000 M⁻¹ s⁻¹
B4: TIGIT-006-H4L1 (antibody, V domains shown)
VH: B1 VH with I48M, V67I
VL: B1 VL
notes: Humanized anti-TIGIT antibody

EC50 [1]: 3.38 nM
Fold change vs chimeric antibodies (KD) [2]: 11.5 fold
EC50 [3]: 0.0444 nM
IC50 [4]: 0.904 nM
EC50 [5]: 0.0117 nM
Kd [6]: 0.893 nM
koff [6]: 0.000324 s⁻¹
kon [6]: 363000 M⁻¹ s⁻¹
B5: TIGIT-006-H2L2 (antibody, V domains shown)
VH: B1 VH with K44G
VL: B1 VL with L37Q, Q45K
notes: Humanized anti-TIGIT antibody
